This is an account of results in PMC3398199 (Molecular Cell, 2012).

This test addresses His-tagged human recombinant full-length NEMO (human, UniProt Q9Y6K9 1-419). As to the kind of experiment: SEC.

Sequence of His-tagged human recombinant full-length NEMO (Q9Y6K9 whole entry): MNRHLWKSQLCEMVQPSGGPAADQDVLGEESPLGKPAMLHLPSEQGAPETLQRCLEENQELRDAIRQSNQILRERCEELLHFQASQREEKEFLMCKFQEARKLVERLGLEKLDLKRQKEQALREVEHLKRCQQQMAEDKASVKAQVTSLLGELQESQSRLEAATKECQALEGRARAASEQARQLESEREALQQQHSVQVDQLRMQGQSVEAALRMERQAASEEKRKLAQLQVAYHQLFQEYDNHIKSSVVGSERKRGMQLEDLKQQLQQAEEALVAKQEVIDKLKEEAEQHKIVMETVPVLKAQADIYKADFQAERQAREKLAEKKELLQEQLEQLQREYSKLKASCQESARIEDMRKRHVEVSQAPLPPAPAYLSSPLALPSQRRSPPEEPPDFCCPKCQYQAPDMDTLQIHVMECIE

B1: recombinant FL-human IκBα (natural protein, UniProt P25963 1-317, looked up)
chain: MFQAAERPQEWAMEGPRDGLKKERLLDDRHDSGLDSMKDEEYEQMVKELQEIRLEPQEVPRGSEPWKQQLTEDGDSFLHLAIIHEEKALTMEVIRQVKGDLAFLNFQNNLQQTPLHLAVITNQPEIAEALLGAGCDPELRDFRGNTPLHLACEQGCLASVGVLTQSCTTPHLHSILKATNYNGHTCLHLASIHGYLGIVELLVSLGADVNAQEPCNGRTALHLAVDLQNPDLVSLLLKCGADVNRVTYQGYSPYQLTWGRPSTRIQQQLGQLTLENLQMLPESEDEESYDTESEFTEFTEDELPYDDCVFGGQRLTL
As for B1, the binding result is “binds”.
